How the values were obtained:
Assay in all cases: MHC class I-associated peptides eluted from B-LCLs by mild acid treatment and identified by LC-MS/MS with personalized database
Assay type in all cases: cell-based
Conditions in all cases: EBV-transformed B-LCLs of 2 HLA-identical siblings
HLA-B*0801 = HLA-B*0801 (Homo sapiens, UniProt P01889, A93T/A95T/D138N/E176V/E187T/K202T/Q94N/R180D/S35A/V36M/Y33D/Y91F)
Method: (§1) Peripheral blood mononuclear cells (PBMCs) were isolated from blood samples of 2 HLA-identical siblings. Epstein-Barr virus (EBV)-transformed B lymphoblastoid cell lines (B-LCLs) were derived from PBMCs with Ficoll-Paque™ Plus (Amersham) as described (Tosato and Cohen, 2007). Established B-LCLs were maintained in RPMI 1640 medium supplemented with 10% fetal bovine serum, 25 mM of HEPES, 2 mM L-glutamine and penicillin-streptomycin (all from Invitrogen).
(§2) Three biological replicates of 4×10^8 exponentially growing B-LCLs were prepared from each subject. MHC class I-associated peptides were released by mild acid treatment, pretreated by desalting with an HLB cartridge, filtered with a 3000 Da cut-off column and separated by cation exchange chromatography (SCX) using an off-line 1100 series binary LC system (Agilent Technologies) as previously described (Fortier et al., 2008). Peptides were loaded at 8 uL/min on a homemade strong cation exchange (SCX) column (0.3 mm internal diameter×50 mm length) packed with SCX bulk material (Polysulfoethyl A™, PolyLC). Peptides were separated into five fractions using a linear gradient of 0-25% B in 25 min (solvent A: 5 mM ammonium formate, 15% acetonitrile, ACN, pH 3.0; solvent B: 2 M ammonium formate, 15% ACN, pH 3.0) and brought to dryness using a Speedvac.
(§3) MHC class I-associated peptide fractions were resuspended in 2% aqueous ACN (0.2% formic acid) and analyzed by LC-MS/MS using an Eksigent™ LC system coupled to a LTQ-Orbitrap™ mass spectrometer (Thermo Electron) (Fortier et al., 2008; de Verteuil et al., 2010; Caron et al., 2011). Peptides were separated in a custom C18 reversed phase column (150 μm i.d.×100 mm, Jupiter Proteo™ 4 μm, Phenomenex) at a flow rate of 600 nL/min using a linear gradient of 3-60% aqueous ACN (0.2% formic acid) in 69 mins. Full mass spectra were acquired with the Orbitrap™ analyzer operated at a resolving power of 60 000 (at m/z 400) and collision-activated dissociation tandem mass spectra were acquired in data-dependent mode with the linear ion trap analyzer. Mass calibration used an internal lock mass (protonated (Si(CH3)2O))6; m/z 445.120029) and mass accuracy of peptide measurements was within 5 ppm.
(§4) Mass spectra were analyzed using Xcalibur™ software and peak lists were generated using Mascot™ distiller version 2.1.1 (Matrix Science, http://www.matrixscience.com). Database searches were performed against a non-redundant human Uniprot database (containing 110,361 sequences, released on 28, Jul. 2011) (version 101 of the UniProt Gene Ontology Annotation available from the European Bioinformatics Institute (EBI), an academic research institute located on the Wellcome Trust Genome Campus in Hinxton near Cambridge (UK), part of the European Molecular Biology Laboratory; http://www.ebi.ac.uk/Informationt; Magrane et al., Database Vol. 2011, Article ID bar009; The UniProt Consortium, Nucleic Acids Res. 2011 January; 39(Database issue): D214-D219) and databases specific for each individual (see “in silico translated transcriptome” section) using Mascot (version 2.3, Matrix Science). A Mascot search against a concatenated target/decoy database consisting of combined forward and reverse versions of the Ensembl human reference genome database and of each subject-specific database. Non-redundant peptide sequences with a cutoff score threshold above 15 were selected. The tolerances for precursor and fragment mass values were set to 0.02 and 0.05 Dalton, respectively. Searches were performed without enzyme specificity and a variable modification for oxidation (Met) and deamidation (Asn, Gln). Raw data files were converted to peptide maps comprising m/z values, charge state, retention time and intensity for all detected ions above a threshold of 8000 counts using in-house software (Proteoprofile) (Fortier et al., 2008; de Verteuil et al., 2010; Caron et al., 2011). […]

HLA-A*0301 = biological target: T1, HLA-A*0301 (Homo sapiens, UniProt P04439)
T1 construct: endogenous in cells; host or cells: EBV-transformed B lymphoblastoid cell lines (B-LCLs) from PBMCs of 2 HLA-identical siblings
Method: as §1, §2, §3, §4

HLA-B*4403 = HLA-B*4403 (Homo sapiens, UniProt P01889, A223V/A65T/A93T/A95T/D201E/D98Y/E176V/E187L/E204Q/E69K/G107R/H137Y/K202T/L105A/L119I/N104T/N87E/Q56L/Q94N/R106L/R155S/R180L/S101N/S121R/S35A/S48T/T118I/V36M/W191S/Y140D/Y91S)
Method: as §1, §2, §3, §4

Sequence | presentation at the cell surface by MHC class I allele (HLA-A*0301) | further results
SLFFRKVPF (listed as Homo sapiens) [MiHA peptide from MTCH2, rs1064608, proline allele] |  | presentation at the cell surface by MHC class I allele (HLA-B*0801): presented at the cell surface
SVLKPGNSK (listed as Homo sapiens) [MiHA peptide from ELF1, rs1056820, serine allele] | presented at the cell surface | 
ELQEKFLSL (listed as Homo sapiens) [MiHA peptide from CENPF, rs3795517, leucine allele] |  | presentation at the cell surface by MHC class I allele (HLA-B*0801): presented at the cell surface
RVSLPTSPR (listed as Homo sapiens) [MiHA peptide from KIAA0226L, rs1408184, arginine allele] | presented at the cell surface | 
VMGNPGTFK (listed as Homo sapiens) [MiHA peptide from RMDN1, rs6980476, lysine allele] | presented at the cell surface | 
VMGNPGTFN (listed as Homo sapiens) [MiHA peptide from RMDN1, rs6980476, asparagine allele] | presented at the cell surface | 
ELQEKFSSL (listed as Homo sapiens) [MiHA peptide from CENPF, rs3795517, serine allele] |  | presentation at the cell surface by MHC class I allele (HLA-B*0801): presented at the cell surface
AMYDKGPFWSK (listed as Homo sapiens) [MiHA peptide from NQO1, rs1131341, tryptophan allele] | presented at the cell surface | 
RVSLPTSPG (listed as Homo sapiens) [MiHA peptide from KIAA0226L, rs1408184, glycine allele] | presented at the cell surface | 
QELDGVFQKL (listed as Homo sapiens) [MiHA peptide from ZWINT, rs2241666, glycine allele] |  | presentation at the cell surface by MHC class I allele (HLA-B*4403): presented at the cell surface
SLFFRKVAF (listed as Homo sapiens) [MiHA peptide from MTCH2, rs1064608, alanine allele] |  | presentation at the cell surface by MHC class I allele (HLA-B*0801): presented at the cell surface
TVLKPGNSK (listed as Homo sapiens) [MiHA peptide from ELF1, rs1056820, threonine allele] | presented at the cell surface | 
QELDRVFQKL (listed as Homo sapiens) [MiHA peptide from ZWINT, rs2241666, arginine allele] |  | presentation at the cell surface by MHC class I allele (HLA-B*4403): presented at the cell surface
AMYDKGPFRSK (listed as Homo sapiens) [MiHA peptide from NQO1, rs1131341, arginine allele] | presented at the cell surface | 

Source: patent US9500651B2, “Method for identifying novel minor histocompatibility antigens” (UNIVERSITÉ DE MONTRÉAL, priority 2012, dated 2016)
